Our source for the Kd values is publication doi:10.1101/2024.08.27.609886.

This assay concerns the target FibrilPaint1. Nature of the assay: MST.

Take “E3 ligase CHIP (from UniProt Q9UNE7 23-303) (enzyme)”: the Kd (commonly the constant that tells how readily two partners part at equilibrium) was 1500 nM.
